B1: Kif2a: third microtubule-depolymerizing kinesin-13 protein lacking kinetochore or centromere localization domains; control (protein, UniProt O00139 1-706, looked up)
Kinesin-like protein KIF2A: MATANFGKIQIGIYVEIKRSDGRIHQAMVTSLNEDNESVTVEWIENGDTKGKEIDLESIFSLNPDLVPDEEIEPSPETPPPPASSAKVNKIVKNRRTVASIKNDPPSRDNRVVGSARARPSQFPEQSSSAQQNGSVSDISPVQAAKKEFGPPSRRKSNCVKEVEKLQEKREKRRLQQQELREKRAQDVDATNPNYEIMCMIRDFRGSLDYRPLTTADPIDEHRICVCVRKRPLNKKETQMKDLDVITIPSKDVVMVHEPKQKVDLTRYLENQTFRFDYAFDDSAPNEMVYRFTARPLVETIFERGMATCFAYGQTGSGKTHTMGGDFSGKNQDCSKGIYALAARDVFLMLKKPNYKKLELQVYATFFEIYSGKVFDLLNRKTKLRVLEDGKQQVQVVGLQEREVKCVEDVLKLIDIGNSCRTSGQTSANAHSSRSHAVFQIILRRKGKLHGKFSLIDLAGNERGADTSSADRQTRLEGAEINKSLLALKECIRALGRNKPHTPFRASKLTQVLRDSFIGENSRTCMIATISPGMASCENTLNTLRYANRVKELTVDPTAAGDVRPIMHHPPNQIDDLETQWGVGSSPQRDDLKLLCEQNEEEVSPQLFTFHEAVSQMVEMEEQVVEDHRAVFQESIRWLEDEKALLEMTEEVDYDVDSYATQLEAILEQKIDILTELRDKVKSFRAALQEEEQASKQINPKRPRAL
B2: MCAK/Kif2c: kinesin-13 protein, human sequence SEQ ID NO:3 or 7, overexpressed in tumor cells (protein, listed as Homo sapiens)
chain: MAMDSSLQARLFPGLAIKIQRSNGLIHSANVRTVNLEKSCVSVEWAEGGATKGKEIDFDDVAAINPELLQLLPLHPKDNLPLQENVTIQKQKRRSVNSKIPAPKESLRSRSTRMSTVSELRITAQENDMEVELPAAANSRKQFSVPPAPTRPSCPAVAEIPLRMVSEEMEEQVHSIRGSSSANPVNSVRRKSCLVKEVEKMKNKREEKKAQNSEMRMKRAQEYDSSFPNWEFARMIKEFRATLECHPLTMTDPIEEHRICVCVRKRPLNKQELAKKEIDVISIPSKCLLLVHEPKLKVDLTKYLENQAFCFDFAFDETASNEVVYRFTARPLVQTIFEGGKATCFAYGQTGSGKTHTMGGDLSGKAQNASKGIYAMASRDVFLLKNQPCYRKLGLEVYVTFFEIYNGKLFDLLNKKAKLRVLEDGKQQVQVVGLQEHLVNSADDVIKMLDMGSACRTSGQTFANSNSSRSHACFQIILRAKGRMHGKFSLVDLAGNERGADTSSADRQTRMEGAEINKSLLALKECIRALGQNKAHTPFRESKLTQVLRDSFIGENSRTCMIATISPGISSCEYTLNTLRYADRVKELSPHSGPSGEQLIQMETEEMEACSNGALIPGNLSKEEEELSSQMSSFNEAMTQIRELEEKAMEELKEIIQQGPDWLELSEMTEQPDYDLETFVNKAESALAQQAKHFSALRDVIKALRLAMQLEEQASRQISSKKRPQ
B3: Kif2b: kinesin-13 protein, human sequence SEQ ID NO:1, overexpressed in tumor cells (protein, listed as Homo sapiens)
chain: MASQFCLPESPCLSPLKPLKPHFGDIQEGIYVAIQRSDKRIHLAVVTEINRENYWVTVEWVEKAVKKGKKIDLETILLLNPALDSAEHPMPPPPLSPLALAPSSAIRDQRTATKWVAMIPQKNQTASGDSLDVRVPSKPCLMKQKKSPCLWEIQKLQEQREKRRRLQQEIRARRALDVNTRNPNYEIMHMIEEYRRHLDSSKISVLEPPQEHRICVCVRKRPLNQRETTLKDLDIITVPSDNVVMVHESKQKVDLTRYLQNQTFCFDHAFDDKASNELVYQFTAQPLVESIFRKGMATCFAYGQTGSGKTYTMGGDFSGTAQDCSKGIYALVAQDVFLLLRNSTYEKLDLKVYGTFFEIYGGKVYDLLNWKKKLQVLEDGNQQIQVVGLQEKEVCCVEEVLNLVEIGNSCRTSRQTPVNAHSSRSHAVFQIILKSGRIMHGKFSLVDLAGNERGADTTKASRKRQLEGAEINKSLLALKECILALGQNKPHTPFRASKLTLVLRDSFIGQNSSTCMIATISPGMTSCENTLNTLRYANRVKKLNVDVRPYHRGHYPIGHEAPRMLKSHIGNSEMSLQRDEFIKIPYVQSEEQKEIEEVETLPTLLGKDTTISGKGSSQWLENIQERAGGVHHDIDFCIARSLSILEQKIDALTEIQKKLKLLLADLHVKSKVE
B4: Dnase2: Dnase2 overexpressed using a pLenti-GIII-CMV-RFP-2A-Puro plasmid (protein, UniProt O00115 19-360, looked up)
Deoxyribonuclease-2-alpha: CYGDSGQPVDWFVVYKLPALRGSGEAAQRGLQYKYLDESSGGWRDGRALINSPEGAVGRSLQPLYRSNTSQLAFLLYNDQPPQPSKAQDSSMRGHTKGVLLLDHDGGFWLVHSVPNFPPPASSAAYSWPHSACTYGQTLLCVSFPFAQFSKMGKQLTYTYPWVYNYQLEGIFAQEFPDLENVVKGHHVSQEPWNSSITLTSQAGAVFQSFAKFSKFGDDLYSGWLAAALGTNLQVQFWHKTVGILPSNCSDIWQVLNVNQIAFPGPAGPSFNSTEDHSKWCVSPKGPWTCVGDMNRNQGEEQRGGGTLCAQLPALWKAFQPLVKNYQPCNGMARKPSRAYKI
B5: Lamin B2: mCherry-Lamin B2 overexpressed to stabilize micronuclear envelopes (protein, UniProt Q03252 1-617, looked up)
Lamin-B2: MSPPSPGRRREQRRPRAAATMATPLPGRAGGPATPLSPTRLSRLQEKEELRELNDRLAHYIDRVRALELENDRLLLKISEKEEVTTREVSGIKALYESELADARRVLDETARERARLQIEIGKLRAELDEVNKSAKKREGELTVAQGRVKDLESLFHRSEVELAAALSDKRGLESDVAELRAQLAKAEDGHAVAKKQLEKETLMRVDLENRCQSLQEELDFRKSVFEEEVRETRRRHERRLVEVDSSRQQEYDFKMAQALEELRSQHDEQVRLYKLELEQTYQAKLDSAKLSSDQNDKAASAAREELKEARMRLESLSYQLSGLQKQASAAEDRIRELEEAMAGERDKFRKMLDAKEQEMTEMRDVMQQQLAEYQELLDVKLALDMEINAYRKLLEGEEERLKLSPSPSSRVTVSRATSSSSGSLSATGRLGRSKRKRLEVEEPLGSGPSVLGTGTGGSGGFHLAQQASASGSVSIEEIDLEGKFVQLKNNSDKDQSLGNWRIKRQVLEGEEIAYKFTPKYILRAGQMVTVWAAGAGVAHSPPSTLVWKGQSSWGTGESFRTVLVNADGEEVAMRTVKKSSVMRENENGEEEEEEAEFGEEDLFHQQGDPRTTSRGC
modifications: mCherry fusion
notes: mCherry-Lamin B2 overexpressed to stabilize micronuclear envelopes

Assays:
MDA-MB-231 cells [1] = test: Chromosome missegregation in anaphase cells; type: cell-based, human; conditions: overexpression in MDA-MB-231 cells
Experimental: (§1) Primary tumor specimens were analyzed from 60 patients with head and neck squamous cell carcinoma (HNSCC) (Chung et al. Cancer Cell 5, 489-500 (2004)). Forty patients had Hematoxylin and Eosin-stained (H&E) primary tumor samples of sufficient quality for high-resolution microscopy analysis. Analysis was restricted to cells fixed while undergoing anaphase as previously described (Bakhoun et al. Clin. Cancer Res. 17, 7704-7711 (2011); Zaki et al. Cancer 120, 1733-1742 (2014)). Chromosome missegregation was defined by hematoxylin staining presence in between the remaining segregating chromosomes during anaphase and it was reported as the percentage of cells undergoing anaphase with evidence of chromosome missegregation. Clinical lymph node status was defined by clinical examination or radiographic evidence of lymph node tumor involvement (Chung et al. Cancer Cell 5, 489-500 (2004)).
(§2) Cell fixation and antibody staining were performed as described (Bakhoun et al. Nat Commun 6, 5990 (2015)). Briefly, cells were fixed with ice-cold (−30 C) methanol for 15 minutes—when staining for centromeres, centrosomes, cGAS, Vimentin, β-actin, or α-tubulin—or 4% paraformaldehyde—when staining for RelB, p65, IRF3, ssDNA, dsDNA, CoxIV, or β-catenin. Subsequently, cells were permeabilized using 1% triton for 4 minutes. See Table 1 for antibody information.
(§3) To determine whether chromosomal instability is causally involved in metastasis, we devised a genetic approach (Bakhoun et al., Nat. Cell Biol. 11, 27-35 (2009); Bakhoun et al., Nat Commun 6, 5990 (2015)) to alter the rate of chromosome missegregation in transplantable tumor models of human TNBC (MDA-MB-231) and lung adenocarcinoma (H2030). […] These cells, with unperturbed chromosome segregation rates, are referred to a as CIN-medium cells. […] As an important control, Kif2a was overexpressed, Kif2a is a third member of the microtubule-depolymerizing kinesin-13 proteins that lacks any kinetochore or centromere localization domains (Ems-McClung et al. Semin. Cell Dev. Biol. 21, 276-282 (2010)).

H2030 cells = test: Chromosome missegregation in anaphase cells; type: cell-based, human; conditions: overexpression in H2030 cells
Experimental: as §1, §2, §3

MDA-MB-231 cells [2] = test: Intracardiac injection metastasis model, bioluminescence imaging and disease-specific survival; type: in vivo, mice; conditions: intracardiac injection of MDA-MB-231 cells expressing the protein, FIG. 2E
Experimental: Animal experiments were performed in accordance with protocols approved by the Weill Cornell Medicine Institutional Animal Care and Use Committee. […] There was no need to randomize animals. Investigators were not blinded to group allocation. Intracardiac injection was performed as previously described (Chen et al. Nature 533, 493-498 (2016)). Briefly, cells were trypsinized and washed with PBS and a 1×10^5 cells (in 100 μl of PBS) were injected into the left cardiac ventricle of female athymic 6-7-week-old athymic nude (nu/nu) mice (Jackson Laboratory strain 002019). Mice were then immediately injected with D-luciferin (150 mgkg^−1) and subjected to bioluminescence imaging (BLI) using tan IVIS Spectrum Xenogen instrument (Caliper Life Sciences) to ensure systemic dissemination of tumor cells. Metastatic burden was measured at week 5 after injection using BLI and in the case of MDA-MB-231 mice BLI images were taken every 1-2 weeks for up to 17 weeks. BLI images were analyzed using Living Image Software v.2.50. Disease-specific survival endpoint was met when the mice died or met the criteria for euthanasia under the IACUC protocol and had radiographic evidence of metastatic disease. For Orthotopic tumor implantation, 2.5×10^5 cells in 50p of PBS were mixed 1:1 with Matrigel (BD Biosciences) and injected into the fourth mammary fat pad. Only one tumor was implanted per animal. Primary tumors were surgically excited when they reached ˜1.5 cm in the largest dimension and metastatic dissemination was assessed using BLI imaging at 1-week to 3-week intervals for up to 30 weeks. Distant metastasis-free survival endpoint was met when BLI signal was seen outside of site of primary tumor transplantation. To derive short-term culture from primary tumors and metastases, anesthetized animals (isofluorane) were imaged then sacrificed. Ex-vivo BLI was subsequently performed on harvested organs to define the precise location of the metastatic lesion. Primary tumors and metastases were subsequently mechanically dissociated and cultured in DMEM with selection media to select for tumor cells. […]

cytosolic DNA = test: Cytosolic dsDNA and ssDNA staining after selective plasma membrane permeabilization; type: cell-based, human; conditions: after overexpression of Dnase2
Experimental: as §2
For selective plasma membrane permeabilization used for cytosolic dsDNA and ssDNA staining, cells were treated with 0.02% saponin for 5 minutes after fixation. For single-stranded (Thermo Fisher FEREN0321) and double stranded (Life Technologies—EN0771)-specific nuclease treatment, cells were also permeabilized with 0.02% saponin for 2 minutes and treated with either nucleases for 10 minutes before fixation using 4% paraformaldehyde. TBS-BSA was used as a blocking agent during antibody staining. DAPI was added together with secondary antibodies. Cells were mounted with Prolong Diamond Antifade Mountant (Life Technologies—P36961).

cGAS = cGAS localization to micronuclei by immunofluorescence; type: cell-based, human; conditions: Lamin B2 overexpression in dnMCAK cells
Experimental: as §2

Row | Molecule | chromosome segregation errors during anaphase (MDA-MB-231 cells [1]) | chromosome segregation errors during anaphase (H2030 cells) | disease-specific survival of mice (MDA-MB-231 cells [2]) | cytosolic dsDNA staining signal (cytosolic DNA) | relative fraction of micronuclei with cGAS staining (cGAS)
1 | B1 | no effect | no effect | middle levels of survival | – | –
2 | B2 | significant suppression | significant suppression | most survival | – | –
3 | B3 | significant suppression | significant suppression | most survival | – | –
4 | B4 | – | – | – | disappeared | –
5 | B5 | – | – | – | – | significantly diminished

Source: patent publication US11821042B2, “Targeting chromosomal instability and downstream cytosolic DNA signaling for cancer treatment” (Cornell University, priority 2017, dated 2023)
